Assay results taken from paper PMC10620760, “Phosphorylation controls spatial and temporal activities of motor‐PRC1 complexes to complete mitosis” (The EMBO Journal, 2023).
Numbering of substitutions follows the chain as printed. Ends that are not written are not given here.

T1: PRC1_(1–168) (human, UniProt O43663 1-168)
T1 chain: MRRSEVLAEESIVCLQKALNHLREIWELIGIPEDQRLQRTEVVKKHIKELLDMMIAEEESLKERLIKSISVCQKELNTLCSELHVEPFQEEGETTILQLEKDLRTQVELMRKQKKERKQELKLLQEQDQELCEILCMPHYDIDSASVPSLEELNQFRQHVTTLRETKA

T2: GFP‐PRC1 (human, UniProt O43663 1-620)
T2 construct: protein regulator of cytokinesis 1 (PRC1), human; Purified recombinant GFP-PRC1 of the TIRF assay; probably full length
T2 sequence (looked up): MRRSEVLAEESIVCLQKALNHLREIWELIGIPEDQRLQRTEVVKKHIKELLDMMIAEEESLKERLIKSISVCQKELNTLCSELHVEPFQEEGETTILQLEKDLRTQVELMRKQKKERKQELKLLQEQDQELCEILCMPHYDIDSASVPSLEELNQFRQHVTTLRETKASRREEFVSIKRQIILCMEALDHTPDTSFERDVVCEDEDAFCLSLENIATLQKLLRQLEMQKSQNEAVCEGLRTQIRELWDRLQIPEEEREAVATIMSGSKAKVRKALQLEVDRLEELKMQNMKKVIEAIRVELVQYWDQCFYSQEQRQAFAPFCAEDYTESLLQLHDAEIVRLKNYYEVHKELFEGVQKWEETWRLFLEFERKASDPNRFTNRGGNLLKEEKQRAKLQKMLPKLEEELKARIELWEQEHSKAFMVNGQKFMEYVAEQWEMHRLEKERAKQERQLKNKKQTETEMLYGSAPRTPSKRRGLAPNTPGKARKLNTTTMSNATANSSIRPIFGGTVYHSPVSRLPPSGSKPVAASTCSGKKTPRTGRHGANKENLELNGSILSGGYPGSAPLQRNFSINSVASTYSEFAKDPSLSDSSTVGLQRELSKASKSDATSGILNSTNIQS

B1: PRC1_(1–168) (domain or fragment, human, UniProt O43663 1-168, looked up)
chain: T1 chain
notes: Dimer by SEC-MALS (52 ± 2.5 kDa measured); source: E. coli BL21-CodonPlus (DE3)-RIL, purified (HisTrap, SEC)
B2: GST‐CENP‐E_(2605–2701) 2SD (domain or fragment, human, UniProt Q02224-1 2605-2701, looked up)
chain: SPKSPKVTGTASKKKQITPSQCKERNLQDPVPKEDPKSCFFDSRSKSLPDPHPVRYFDNSSLGLCPEVQNAGAESVDSQPGPWHASSGKDVPECKTQ
notes: also called pAG96; source: E. coli BL21-CodonPlus (DE3)-RIL, purified; not shown: GST, N-terminal, kept
B3: GST‐Kif4A_(1133–1232) (domain or fragment, human, UniProt O95239 1133-1232, looked up)
chain: TQDSEGSFKLEDPTEVTPGLSFFNPVCATPNSKILKEMCDVEQVLSKKTPPAPSPFDLPELKHVATEYQENKAPGKKKKRALASNTSFFSGCSPIEEEAH
notes: also called pAG127; source: E. coli BL21-CodonPlus (DE3)-RIL, purified
B4: PRC1_(1–168) MEE (domain or fragment, human, UniProt O43663 1-168, looked up)
chain: T1 chain with M54A, E57A, E58A
notes: Vector pET Duet 1; dimer by SEC-MALS; source: E. coli BL21-CodonPlus (DE3)-RIL, purified
B5: 647GST‐CENP‐E_(2639–2671) (domain or fragment, human, UniProt Q02224-1 2639-2671, looked up)
chain: SPKSCFFDSRSKSLPSPHPVRYFDNSSLGLCPE
modifications: cysteine pairing not given here; also: Alexa Fluor 647 label, site not given here (degree of labelling ~1:3), GST fusion
notes: also called pAG118

Key:
[1] = target: T1, PRC1_(1–168); assay: ITC
[2] = target: the molecule itself; assay: SEC-MALS; 100 μl of 3.6 mg/ml PRC1(1-168) (152 μM) or 2.0 mg/ml PRC1(1-168) MEE (84 μM), Superdex-200 Increase 10/300 GL, 20 mM HEPES pH 7.4, 300 mM NaCl, 1 mM EDTA, 22°C
[3] = target: GST‐CENP‐E_(2605–2701) 6SD (human, UniProt Q02224-1 2605-2701, S2639D | S2647D | S2649D (printed S2469D in Table 1; S2649 in the text) | …); assay: ITC
[4] = target: B1; assay: ITC; PRC1(1-168) titrated into the CENP-E construct or peptide in the cell, 25°C, 20 mM HEPES pH 7.5, 150 mM NaCl, 0.005% Tween-20, 0.5 mM TCEP; one set of sites; concentrations calculated for monomers; conditions: both partners purified
[5] = target: B1; assay: SEC; proteins mixed at equimolar (1:1) ratio, Superdex 200 Increase 10/300 GL, 20 mM HEPES pH 7.5, 300 mM NaCl, 1 mM EDTA, 1 mM DTT; fractions on Coomassie-stained SDS-PAGE; conditions: both partners purified
[6] = target: T2, GFP‐PRC1; assay: TIRF microscopy, recruitment to microtubules in vitro; GMPCPP-stabilized rhodamine microtubules mixed with 647GST-CENP-E(2639-2671) alone, GFP-PRC1 alone or both, held on coverslips by anti-tubulin antibodies; 80 mM PIPES pH 6.9, 5 mM MgCl2, 1 mM DTT, oxygen scavenger; conditions: both partners purified

## PKSCFFDSRSK [CENP‐E peptide 1]
[1]
  Kd: 41.1 µM

## B1
[2]
  stoichiometry N: 2
[3]
  Kd: > 100 µM

## B2
[4]
  Kd: 2.4 µM

## B3
[5]
  binding result: binds

## B4
[2]
  stoichiometry N: 2

## PVRYFDNSSLG [CENP‐E peptide 2]
[1]
  Kd: 64 µM

## B5
[6]
  binding result: binds
